From paper PMC10771423, “Discovery and biochemical characterization of thermostable glycerol oxidases” (Applied Microbiology and Biotechnology, 2024)

Experiments:
purified protein [1] = substrate: OC[C@@H](O)[C@H](O)[C@@H](O)CO; assay: purified protein; conditions: 50 mM KPi pH 7.5, 25 °C, O2 as co-substrate
purified protein [2] = substrate: OCC(O)CO; assay: purified protein; conditions: 50 mM KPi pH 7.5, 25 °C, O2 as co-substrate

| Protein | Km (purified protein [1]) [µM] | kcat (purified protein [1]) [s⁻¹] | kcat/Km (purified protein [1]) [M⁻¹ s⁻¹] | Km (purified protein [2]) [µM] | kcat (purified protein [2]) [s⁻¹] | kcat/Km (purified protein [2]) [M⁻¹ s⁻¹] |
| --- | --- | --- | --- | --- | --- | --- |
| AldOAb (Actinomycetota bacterium) (protein) MTMRSTNWAGNVVYRASELHRPASLDELRRVVARSPKVRVLGSGHSFNEITDTEGALVSLEALPPEVEIDRATGTARVAAGLRYGELSARLHAAGYALPNLASLPHICVAGACATGTHGSGDGIGGLAGSVTAVELVTADGDLVTLSRDADPDRFPGAVVSLGALGAVVTMTLRLEPAFQVRQRVYENLPAEALDDHFDEIMASGYSVSLFTDWRGDRIRQVWVKERVGDPAAGGEEREPVVAALGATPADGPRHPVPGMPAANCTEQLGVPGPWHERLPHFRLGFTPSSGDELQAEYLLPRRHAVAAFHALAGIADRIAPVLHISEIRTVAADDLWLSPFHGRNTVAFHFTWKPDEAAVREVLSLMEEVLAPFEPRPHWGKLFAIPPKVLRSRYDRIGDFRALARELDPSGKFANAFVAHHVLDDE | 30 | 4.2 | 140000 |  |  |  |
| AldOTf (Thermopolyspora flexuosa) (protein) MRSTNWAGNVVFRASELHRPASIDELRRVVARSPKVRVLGSGHSFNEITDTDGTLVSLDALPPEVEIDGATGTARISAGLRYGELSRRLHAAGHALANLASLPHICVAGACATGTHGSGDGNGGLATSVTAVELVTGEGDLVTLSRDADPDRFPGAVVSLGALGVVVAMTLRLVPAFEVRQRVYENLPAEALAGHFDEIMASGYSVSLFTDWRGDRISQVWVKERVDASSGAPGDEREPVVAALGATPADGPRHPVPGMPAVNCTEQLGVPGPWFERLPHFRPEFTPSSGDELQAEYLLPRRHAVAAFQALAGIADRIAPVLHISEIRTVAADDLWLSPFHGRDTVAFHFTWKRDEAAVLDVLGLMEDVLAPFEPRPHWGKLFTIPPKVLHSRYDRMADFRALARELDPAGKFANAFVARHVLEIE | 30 | 3.1 | 100000 | 50000 | 1.6 | 32 |
| AldOCh (Thermostaphylospora chromogena) (protein) MSPTLTNWAGNIVFRAGEVHRPETLEELRTLVTRADKVRVLGSGHSFNDIADSPGVLVSPSRLPRELELDTAAGAVRVSAGIRYAELSAWLHERGFALHNLASLPHISVAGSCATATHGSGDGNGNLATAVRALTLVTAEGDLVDLDRERDGDRFRGAVVGLGALGVVVSMTLDVEPTFEVRQRVYEDLPLEAACDHFSDIMGCAYSVSMFSDWTSSRINQVWVKERVDEDGSRPPGPASFGAKPADGPRHPIARMPAGNCTEQLGVPGPWFARLPHFRPEFTPSGGQERQAEYLVPRRHAVAALRELAAIGDRIAPVLQISEIRTIAADDLWLSPCQGRDTVGFHFTLIPDTAAVLPVLELIEERLAPFEARPHWGKLFTTPPAVLRSRYDRLPDFQALARDLDPGGKFANEFISRNLLDA | 40 | 3.5 | 120000 |  |  |  |
